The values that follow come from US6333311, “Useful properties of human lactoferrin and variants thereof” (Pharming, dated 2001).

B1: natural human lactoferrin (ligand)
chain: GRRRRSVQWCAVSQPEATKCFQWQRNMRKVRGPPVSCIKRDSPIQCIQAIAENRADAVTLDGGFIYEAGLAPYKLRPVAAEVYGTERQPRTHYYAVAVVKKGGSFQLNELQGLKSCHTGLRRTAGWNVPIGTLRPFLNWTGPPEPIEAAVARFFSASCVPGADKGQFPNLCRLCAGTGENKCAFSSQEPYFSYSGAFKCLRDGAGDVAFIRESTVFEDLSDEAERDEYELLCPDNTRKPVDKFKDCHLARVPSHAVVARSVNGKEDAIWNLLRQAQEKFGKDKSPKFQLFGSPSGQKDLLFKDSAIGFSRVPPRIDSGLYLGSGYFTAIQNLRKSEEEVAARRARVVWCAVGEQELRKCNQWSGLSEGSVTCSSASTTEDCIALVLKGEADAMSLDGGYVYTAGKCGLVPVLAENYKSQQSSDPDPNCVDRPVEGYLAVAVVRRSDTSLTWNSVKGKKSCHTAVDRTAGWNIPMGLLFNQTGSCKFDEYFSQSCAPGSDPRSNLCALCIGDEQGENKCVPNSNERYYGYTGAFRCLAENAGDVAFVKDVTVLQNTDGNNNEAWAKDLKLADFALLCLDGKRKPVTEARSCHLAMAPNHAVVSRMDKVERLKQVLLHQQAKFGRNGSDCPDKFCLFQSETKNLLFNDNTECLARLHGKTTYEKYLGPQYVAGITNLKKCSTSPLLEACEFLRK
B2: iron-saturated human lactoferrin (ligand)
chain: B1 chain
B3: human lysozyme (enzyme)
chain: KVFERCELARTLKRLGMDGYRGISLANWMCLAKWESGYNTRATNYNAGDRSTDYGIFQINSRYWCNDGKTPGAVNACHLSCSALLQDNIADAVACAKRVVRDPQGIRAWVAWRNRCQNRDVRQYVQGCGV

The target of the test “human lysozyme” is B3. Nature of the test: competitive ELISA: unlabelled competitor against 12.5 nM biotinylated hLF on hLZ-coated plates.
For test [1], the target named is B1. Nature of the test: solid-phase ligand binding ELISA, hLZ-coated plates. (In an ELISA, binding on a coated surface is turned into a signal by an enzyme label.)
Another test has as its target human transferrin (human, UniProt P02787). Nature of the test: competitive ELISA: hTF as competitor of 12.5 nM biotinylated hLF on hLZ-coated plates.

As to B1, in the test with human lysozyme, the IC50 worked out at 11.2 nM. In the case of B2, the half-inhibitory concentration (IC50) in the test with human lysozyme is 15.4 nM. For B3, the binding result was “binds” in test [1] and “no binding” with human transferrin.

The IC50 is the concentration that inhibits the measured activity by half. Read a high IC50 as weaker potency in that assay.
